{
  "source": "paper PMC7064779",
  "target": "LecB-biotin (Pseudomonas aeruginosa lectin LecB, biotinylated) (Pseudomonas aeruginosa) (UniProt Q9HYN5)",
  "experiment": "pull-down; LecB-biotin applied basolaterally to polarized filter-grown MDCK cells; cells lysed; LecB-biotin-receptor complexes precipitated with streptavidin beads; β1-integrin probed by Western blot in precipitate and supernatant",
  "data": [
    {"substance": "β1-integrin (glycosylated, endogenous in MDCK cells) (receptor)", "values": [
      {"measurement": "percent of total β1-integrin extracted", "value": 75, "unit": "%"}
    ]}
  ]
}
